Data published in US20220041711A1 (NGM BIOPHARMACEUTICALS, published 2022).
Where two headings read alike, the source gives them in different places.

T1: human LAIR-1-Fc (human, UniProt Q6GTX8 22-165)
T1 construct: also called biotinylated human LAIR-1-Fc; not shown: a Fc region
T1 chain: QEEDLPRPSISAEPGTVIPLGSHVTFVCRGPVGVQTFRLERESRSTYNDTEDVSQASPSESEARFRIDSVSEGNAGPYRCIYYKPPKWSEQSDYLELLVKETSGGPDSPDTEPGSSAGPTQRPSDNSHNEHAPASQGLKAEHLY

T2: mouse LAIR-1 (form in the assay not stated) (mouse, UniProt Q8BG84 22-144, limits assumed)
T2 sequence: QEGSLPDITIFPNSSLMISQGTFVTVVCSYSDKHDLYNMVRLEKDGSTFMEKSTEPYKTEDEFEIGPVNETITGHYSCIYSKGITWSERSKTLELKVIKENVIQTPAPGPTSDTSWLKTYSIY

T3: human LAIR-1-ECD (human, UniProt Q6GTX8 22-165)
T3 construct: Recombinant, expressed in mammalian cells; also called extracellular region of human LAIR-1
T3 chain: T1 chain

B1: anti-LAIR-1 antibody ch57D12 (antibody, V domains shown)
VH: QVQLQQSGAELARPGASVNLSCRASGYSFTSFGISWVKQRTGQGLEWIGEIYPRSDNTFYNEKFKGKATLTADKSSSTAYMELRSLTSEDSAVYFCARHFGSSSFDYWGQGTTLTVSS
VL: ENVLTQSPPIMAASLGQKVTMTCSASSSVSSIYFHWYQQKSGTSPKPLIHRASNLASGVPARFSGSGSGTSYSLTISSVEAEDDATYYCQQWSGYPLTFGGGTKLEIK
notes: The prefix 'ch' is not defined
B2: ch43H2 (antibody, V domains shown)
VH: EVQLVESGGGLVQPGRSLKVSCAASGFTFSNYGIHWIRQAPTKGLEWVASISPSGRSTYFRDSVKGRFTISRDNAKNTLYLQLDSLRSEDTATYYCATGINYSSFDYWGQGVMVTVSS
VL: DIVMTQSPTSMSISVGDRVTMNCKASQNVGSHVDWYQQKTGQSPKLLISTASNRYTGVPDRFTGSGSGTDFTFTINNMQTEDLAVYYCMQSNSYPPTFGGGTKLELK
notes: also called purified ch43H2
B3: humanized anti-LAIR-1 antibody Hz62G10.v1 (antibody, human IgG1, kappa, N297G, V domains shown)
VH: EVQLVESGGGLVKPGGSLRLSCAASGFTFNINAMNWVRQAPGKGLEWVARIRTKNNNFATYYADSVKDRFTISRDDSKNTLYLQMNSLKTEDTAVYYCVRGPYFDYWGQGTLVTVSS
VL: DIQMTQSPSSLSASVGDRVTITCLASQTIGTWLAWYQQKPGKAPKLLIYAATSLADGVPSRFSGSGSGTDFTLTISSLQPEDFATYYCQQLYSTPYTFGGGTKVEIKR
notes: Humanized 62G10

Tests used:
[1] = target: T4, human LAIR-1-CD3ζ chimeric receptor on NFAT-GFP reporter cells (human, UniProt P20963 31-164, limits assumed); experiment: cell-based or functional assay
[2] = target: T5, cyno LAIR-1-CD3ζ chimeric receptor on NFAT-GFP reporter cells (cynomolgus monkey; human); experiment: cell-based or functional assay
[3] = target: T4, human LAIR-1-CD3ζ chimeric receptor on …; experiment: cell-based or functional assay; remark: listed apart in the source
Target sequence in this assay (P20963 other isoform, or with tags, fused parts or gaps mutant limits assumed): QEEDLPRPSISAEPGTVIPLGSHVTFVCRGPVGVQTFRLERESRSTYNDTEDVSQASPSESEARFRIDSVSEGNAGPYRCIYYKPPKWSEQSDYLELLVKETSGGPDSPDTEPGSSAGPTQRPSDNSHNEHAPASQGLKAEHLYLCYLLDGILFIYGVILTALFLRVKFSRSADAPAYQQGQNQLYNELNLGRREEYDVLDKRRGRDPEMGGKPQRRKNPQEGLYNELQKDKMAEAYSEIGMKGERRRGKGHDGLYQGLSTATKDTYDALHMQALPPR

human LAIR-1-Fc = target: T1, human LAIR-1-Fc; experiment: ELISA blocking: plate coated with 5 µg/mL human collagen type 1, antibody titrated, 1 µg/mL biotinylated human LAIR-1-Fc, streptavidin-HRP, OD650
[4] = target: T4, human LAIR-1-CD3ζ chimeric receptor on …; experiment: cell-based or functional assay; remark: listed apart in the source
[5] = target: T5, cyno LAIR-1-CD3ζ chimeric receptor on …; experiment: cell-based or functional assay; remark: listed apart in the source
Target sequence in this assay (P20963 other isoform, or with tags, fused parts or gaps mutant limits assumed): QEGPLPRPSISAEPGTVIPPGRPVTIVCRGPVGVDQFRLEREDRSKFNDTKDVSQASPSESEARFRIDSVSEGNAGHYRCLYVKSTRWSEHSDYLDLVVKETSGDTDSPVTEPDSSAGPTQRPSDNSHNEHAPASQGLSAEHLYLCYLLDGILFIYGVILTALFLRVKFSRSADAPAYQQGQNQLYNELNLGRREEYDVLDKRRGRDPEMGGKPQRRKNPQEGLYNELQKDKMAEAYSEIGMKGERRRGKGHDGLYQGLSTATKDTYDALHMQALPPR

[6] = target: T2, mouse LAIR-1 (form in the assay not …); experiment: SPR (Biacore)
[7] = target: T2, mouse LAIR-1 (form in the assay not …); experiment: not described
human LAIR-1-ECD = target: T3, human LAIR-1-ECD; experiment: SPR (Biacore) as in Example 2

Binder | IC50 (read off the curve): % GFP+ human LAIR-1 reporter cells on polymerized collagen matrix [1] [nM] | IC50 (read off the curve): % GFP+ cyno LAIR-1 reporter cells on polymerized collagen matrix [2] [nM] | IC50 (read off the curve): % GFP+ human LAIR-1 reporter cells on coated MARCO-his [3] [nM] | IC50 (read off the curve): % GFP+ human LAIR-1 reporter cells on coated collagen 1 [3] [nM] | IC50 (read off the curve): % GFP+ human LAIR-1 reporter cells on coated collagen 4 [3] [nM] | IC50 (read off the curve) (human LAIR-1-Fc) [nM] | IC50 (read off the curve): % GFP+ human LAIR-1 reporter cells on coated MARCO-his [4] [nM] | IC50 (read off the curve): % GFP+ human LAIR-1 reporter cells on coated collagen 1 [4] [nM] | IC50 (read off the curve): % GFP+ human LAIR-1 reporter cells on coated collagen 4 [4] [nM] | IC50 (read off the curve): % GFP+ cyno LAIR-1 reporter cells on coated MARCO-his [5] [nM] | IC50 (read off the curve): % GFP+ cyno LAIR-1 reporter cells on coated collagen 1 [5] [nM] | IC50 (read off the curve): % GFP+ cyno LAIR-1 reporter cells on coated collagen 4 [5] [nM] | Kd [6] [nM] | koff [6] [s⁻¹] | kon [6] [M⁻¹ s⁻¹] | binding result [7] | Kd (human LAIR-1-ECD) [nM] | koff (human LAIR-1-ECD) [s⁻¹] | kon (human LAIR-1-ECD) [M⁻¹ s⁻¹]
B1 | ~0.3 | ~1 | ~0.2 | ~0.7 | ~0.4 | ~5 | ~0.3 | ~0.3 | ~0.2 | ~1 | ~2 | ~0.8 | – | – | – | – | – | – | –
B2 | – | – | – | – | – | – | – | – | – | – | – | – | 1.1 | 0.00057 | 530000 | – | – | – | –
B3 | ~0.03 | ~0.2 | – | – | – | ~3 | ~0.05 | ~0.04 | ~0.03 | ~0.2 | ~0.4 | ~0.2 | – | – | – | no binding | 1.1 | 0.00079 | 700000
